# Experimental data from US20120107323A1, “KINASE PROTEIN BINDING INHIBITORS” (University of Florida, priority 2009, published 2012).
# Target: IGF-1R of the transfected cells of Example 10 (confocal microscopy) (Homo sapiens (Human)) (UniProt P08069)
# Experiment: confocal microscopy, colocalization in cells transfected in the presence of the small molecule NSC 250435
substance,measurement,value
GFP-fused FAK-NT2 (a.a. 127-243),percentage of interaction,30%
